B1: E3 ubiquitin-protein ligase DZIP3 (Homo sapiens), Q86Y13 (parent)
chain: MDSLPDEFFVRHPAVEDQRKEETENKLEKSSGQLNKQENDIPTDLVPVNLLLEVKKLLNAINTLPKGVVPHIKKFLQEDFSFQTMQREVAANSQNGEEIVPALTLRFLITQLEAALRNIQAGNYTAHQINIGYYLTLLFLYGVALTERGKKEDYTEAENKFLVMKMMIQENEICENFMSLVYFGRGLLRCAQKRYNGGLLEFHKSLQEIGDKNDHWFDIDPTEDEDLPTTFKDLLNNFIKTTESNIMKQTICSYLDCERSCEADILKNTSYKGFFQLMCSKSCCVYFHKICWKKFKNLKYPGENDQSFSGKKCLKEGCTGDMVRMLQCDVPGIVKILFEVVRKDEYITIENLGASYRKLISLKITDTDIRPKISLKFNTKDEMPIFKLDYNYFYHLLHIIIISGTDIVRQIFDEAMPPPLLKKELLIHKNVLESYYNHLWTNHPLGGSWHLLYPPNKELPQSKQFDLCLLLALIKHLNVFPAPKKGWNMEPPSSDISKSADILRLCKYRDILLSEILMNGLTESQFNSIWKKVSDILLRLGMMQEDIDKVKENPIENISLDYHQLSVYLGIPVPEIIQRMLSCYQQGIALQSITGSQRIEIEELQNEEEELSPPLMEYNINVKSHPEIQFAEINKDGTSIPSESSTESLKDLQEVKSKQRKKKKTKNKKNKDSKEDQVPYVVEKEEQLRKEQANPHSVSRLIKDDASDVQEDSAMEDKFYSLDELHILDMIEQGSAGKVTTDYGETEKERLARQRQLYKLHYQCEDFKRQLRTVTFRWQENQMQIKKKDKIIASLNQQVAFGINKVSKLQRQIHAKDNEIKNLKEQLSMKRSQWEMEKHNLESTMKTYVSKLNAETSRALTAEVYFLQCRRDFGLLHLEQTEKECLNQLARVTHMAASNLESLQLKAAVDSWNAIVADVRNKIAFLRTQYNEQINKVKQGFALSTLPPVQLPPPPPSPEILMQQFLGRPLVKESFFRPILTVPQMPAVCPGVVSATGQPRAPLMTGIAWALPAPVGDAVPPSAGLRSDPSIMNWERITDRLKTAFPQQTRKELTDFLRKLKDAYGKSLSELTFDEIVCKISQFIDPKKSQSQGKSVSNVNCVSPSHSPSQPDAAQPPKPAWRPLTSQGPATWEGASNPDEEEEEEEPCVICHENLSPENLSVLPCAHKFHAQCIRPWLMQQGTCPTCRLHVLLPEEFPGHPSRQLPKI
B2: Calcium-binding and coiled-coil domain-containing protein 2 (Homo sapiens), Q13137 (parent)
chain: MEETIKDPPTSAVLLDHCHFSQVIFNSVEKFYIPGGDVTCHYTFTQHFIPRRKDWIGIFRVGWKTTREYYTFMWVTLPIDLNNKSAKQQEVQFKAYYLPKDDEYYQFCYVDEDGVVRGASIPFQFRPENEEDILVVTTQGEVEEIEQHNKELCKENQELKDSCISLQKQNSDMQAELQKKQEELETLQSINKKLELKVKEQKDYWETELLQLKEQNQKMSSENEKMGIRVDQLQAQLSTQEKEMEKLVQGDQDKTEQLEQLKKENDHLFLSLTEQRKDQKKLEQTVEQMKQNETTAMKKQQELMDENFDLSKRLSENEIICNALQRQKERLEGENDLLKRENSRLLSYMGLDFNSLPYQVPTSDEGGARQNPGLAYGNPYSGIQESSSPSPLSIKKCPICKADDICDHTLEQQQMQPLCFNCPICDKIFPATEKQIFEDHVFCHSL
partner: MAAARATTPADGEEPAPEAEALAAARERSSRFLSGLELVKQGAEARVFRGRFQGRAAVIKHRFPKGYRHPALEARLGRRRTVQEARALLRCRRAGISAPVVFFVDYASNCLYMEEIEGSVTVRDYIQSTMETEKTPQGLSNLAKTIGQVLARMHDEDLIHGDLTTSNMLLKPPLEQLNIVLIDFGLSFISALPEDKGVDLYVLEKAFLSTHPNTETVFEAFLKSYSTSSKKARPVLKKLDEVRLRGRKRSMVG
B3: Putative RNA-binding protein Luc7-like 2 (Homo sapiens), Q9Y383 (parent)
chain: MSAQAQMRAMLDQLMGTSRDGDTTRQRIKFSDDRVCKSHLLNCCPHDVLSGTRMDLGECLKVHDLALRADYEIASKEQDFFFELDAMDHLQSFIADCDRRTEVAKKRLAETQEEISAEVAAKAERVHELNEEIGKLLAKVEQLGAEGNVEESQKVMDEVEKARAKKREAEEVYRNSMPASSFQQQKLRVCEVCSAYLGLHDNDRRLADHFGGKLHLGFIEIREKLEELKRVVAEKQEKRNQERLKRREEREREEREKLRRSRSHSKNPKRSRSREHRRHRSRSMSRERKRRTRSKSREKRHRHRSRSSSRSRSRSHQRSRHSSRDRSRERSKRRSSKERFRDQDLASCDRDRSSRDRSPRDRDRKDKKRSYESANGRSEDRRSSEEREAGEI
partner: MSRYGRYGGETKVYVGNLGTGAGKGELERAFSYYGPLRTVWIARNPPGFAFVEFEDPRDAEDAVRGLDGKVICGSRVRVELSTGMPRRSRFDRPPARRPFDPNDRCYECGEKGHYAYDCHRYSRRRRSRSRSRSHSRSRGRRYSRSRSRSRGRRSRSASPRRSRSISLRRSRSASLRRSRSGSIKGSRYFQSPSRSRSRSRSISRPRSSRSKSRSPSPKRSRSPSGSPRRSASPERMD
B4: Isoform 1 of 1-aminocyclopropane-1-carboxylate synthase-like protein 1 (Homo sapiens), Q96QU6-1 (parent)
chain: MFTLPQKDFRAPTTCLGPTCMQDLGSSHGEDLEGECSRKLDQKLPELRGVGDPAMISSDTSYLSSRGRMIKWFWDSAEEGYRTYHMDEYDEDKNPSGIINLGTSENKLCFDLLSWRLSQRDMQRVEPSLLQYADWRGHLFLREEVAKFLSFYCKSPVPLRPENVVVLNGGASLFSALATVLCEAGEAFLIPTPYYGAITQHVCLYGNIRLAYVYLDSEVTGLDTRPFQLTVEKLEMALREAHSEGVKVKGLILISPQNPLGDVYSPEELQEYLVFAKRHRLHVIVDEVYMLSVFEKSVGYRSVLSLERLPDPQRTHVMWATSKDFGMSGLRFGTLYTENQDVATAVASLCRYHGLSGLVQYQMAQLLRDRDWINQVYLPENHARLKAAHTYVSEELRALGIPFLSRGAGFFIWVDLRKYLPKGTFEEEMLLWRRFLDNKVLLSFGKAFECKEPGWFRFVFSDQVHRLCLGMQRVQQVLAGKSQVAEDPRPSQSQEPSDQRR
partner: B4 chain
B5: U3 small nucleolar RNA-associated protein 14 homolog C (Homo sapiens), Q5TAP6 (parent)
chain: MNVNQVAENLALSHQEELVDLPKNYPLSENEDEGDSDGERKHQKLLEAIISLDGKNRRKLAERSEASLKVSEFSVSSEGSGEKLGLADLLEPVKTSSSLATVKKQLNRVKSKKVVELPLNKEKIEQIHREVAFSKTSQVLSKWDPIILKNQQAEQLVFPLGKEQPAIAPIEHALSGWKARTPLEQEIFNLLHKNKQPVTDPLLTPMEKASLQAMSLEEAKMHRAELQRARALQSYYEAKARKEKKIKSKKYHKVVKKGKAKKALKEFEQLQKVNPTVALEEMEKIENARMMERMSLKHQNSGKWAKSKAIMAKYDLEARQAMQEQLAKNKELTQKLQVASESEEEEGGTEVEELLVPHVANEVQMNVDGPNPWMFRSCTSDTKEAATQEDPEQVPELAAHEVSASEAEERPVAEEEILLREFEERQSLRKRSELNQDAEPASSQETKDSSSQEVLSELRALSQKLKEKHQSRKQKASSEGTVPQVQREEPAPEEAEPLLLQRSERVQTLEELEELGKEDCFQNKELPRPVLEGQQSERTPNNRPDAPKEKKEKEQLINLQNFLTTQSPSVRSLAVPTIIEELEDEEERDQRQMIKEAFAGDDVIRDFLKEKREAVEASKPKDVDLTLPGWGEWGGVGLKPSAKKRRQFLIKAPEGPPRKDKNLPNVIISEKRNIHAAAHQVQVLPYPFTHHRQFERTIQTPIGSTWNTQRAFQKLTTPKVVTKPGHIIKPIKAEDVGYQSSSRSDLPVIQRNPKRITTRHNKEEKL
partner: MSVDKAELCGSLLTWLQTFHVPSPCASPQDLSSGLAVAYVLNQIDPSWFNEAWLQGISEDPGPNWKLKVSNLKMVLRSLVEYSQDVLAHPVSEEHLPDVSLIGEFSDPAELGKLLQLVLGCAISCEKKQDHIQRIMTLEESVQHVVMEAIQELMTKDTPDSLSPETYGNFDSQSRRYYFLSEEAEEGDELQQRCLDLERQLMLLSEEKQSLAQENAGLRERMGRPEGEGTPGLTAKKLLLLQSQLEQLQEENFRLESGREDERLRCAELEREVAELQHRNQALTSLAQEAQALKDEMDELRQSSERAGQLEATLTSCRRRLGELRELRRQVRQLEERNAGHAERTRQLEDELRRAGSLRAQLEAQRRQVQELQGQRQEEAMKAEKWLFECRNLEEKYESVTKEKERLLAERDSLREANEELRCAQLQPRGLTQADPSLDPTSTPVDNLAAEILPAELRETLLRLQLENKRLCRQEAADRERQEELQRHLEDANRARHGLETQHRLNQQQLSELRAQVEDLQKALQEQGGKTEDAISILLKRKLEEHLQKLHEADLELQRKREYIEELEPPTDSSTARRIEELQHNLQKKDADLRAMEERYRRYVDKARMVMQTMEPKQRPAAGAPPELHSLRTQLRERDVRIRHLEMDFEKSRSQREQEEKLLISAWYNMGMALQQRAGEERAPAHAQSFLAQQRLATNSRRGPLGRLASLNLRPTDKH

Variants of: B1
Conditions: with ub2e2_human UBE2E2, Q96LR5
Chain of ub2e2_human UBE2E2, Q96LR5 (Q96LR5 whole entry): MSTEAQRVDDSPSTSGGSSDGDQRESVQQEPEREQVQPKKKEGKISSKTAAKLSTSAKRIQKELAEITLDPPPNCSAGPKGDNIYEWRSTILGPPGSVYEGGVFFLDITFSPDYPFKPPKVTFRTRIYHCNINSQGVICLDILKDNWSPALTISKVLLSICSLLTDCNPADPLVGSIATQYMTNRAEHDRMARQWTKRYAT

Variant | effect of a mutation on the interaction
F767L | with no effect

Variants of: B1
Conditions: with zch10_human ZCCHC10, Q8TBK6
Chain of zch10_human ZCCHC10, Q8TBK6 (Q8TBK6 whole entry): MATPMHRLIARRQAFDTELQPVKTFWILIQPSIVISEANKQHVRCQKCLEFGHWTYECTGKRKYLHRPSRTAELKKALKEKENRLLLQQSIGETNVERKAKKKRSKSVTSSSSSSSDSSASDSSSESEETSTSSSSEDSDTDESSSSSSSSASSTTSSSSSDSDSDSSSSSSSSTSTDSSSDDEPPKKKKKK

Variant | effect of a mutation on the interaction
F767L | with no effect

Variants of: B2
Conditions: with prpk_human TP53RK

Variant | effect of a mutation on the interaction
V248A | with no effect

Variants of: B3
Conditions: with srsf7_human SRSF7, Q16629

Variant | effect of a mutation on the interaction
K368Q | with no effect

Variants of: B4
Conditions: with 1a1l1_human ACCS

Variant | effect of a mutation on the interaction
S393L | disrupting interaction strength

Variants of: B5
Conditions: with hook2_human HOOK2, Q96ED9

Variant | effect of a mutation on the interaction
G85V | with no effect
R319H | with no effect
I170V | with no effect
K247E | with no effect
R672H | with no effect
V570M | with no effect
A652T | with no effect

— IntAct's records for PubMed 31515488
